According to patent publication US20160311918A1, “Anti-Ron Monoclonal Antibodies as a Cytotoxic Drug Delivery System for Targeted Cancer Therapy” (TEXAS TECH UNIVERSITY SYSTEM, priority 2013, published 2016):

Columns and labels:
RON-β chain (mature RON) = biological target: T1, RON-β chain (mature RON) (Homo sapiens, UniProt Q04912); assay: Western blot of RON expression in CRC cells; type: cell-based; details: 36 h after treatment, 5 μg/ml
T1 construct: We selected CRC cell lines LoVo, DLD1, HT29, HCT116, and SW620 expressing variable levels of RON as the cellular model; host or cells: HCT116, HT29, SW620

RON = RON (Homo sapiens, UniProt Q04912); assay: Immunofluorescent localization of cytoplasmic RON in HT29 cells; type: cell-based; details: 5 μg/ml, 6 h
[1] = system: HT29, HCT116, and SW620 cells; assay: Cell cycle analysis by flow cytometry; type: cell-based, human; details: 5 μg/ml
[2] = system: three CRC cell lines (HCT116, HT29, SW620); type: cell-based, human; parameters: cell death: dose or concentration left out as unconfirmed
Method: Cell viability was determined by the MTS assay. […] Morphological changes were observed under the Olympus BK-41 inverted microscope and photographed. […] FIG. 3D: Cell death percentages were determined by the trypan blue exclusion method.
Cell viability and death assays: Cell viability 72 h after Zt/g4-DM1 treatment was determined by the MTT assay (22). Viable or dead cells were determined by the trypan blue exclusion assay. A total of 900 cells were counted from three individual wells to reach the percentages of dead cells.

[3] = system: CRC cell-mediated tumor growth; assay: Mouse xenograft CRC models, single dose, all three lines; type: in vivo; details: single dose 20 mg/kg
Method: Mouse xenograft CRC model and anti-RON ADC treatment: All mice studies were approved by the institutional animal care committee. Female athymic nude mice at 6 weeks of age (Taconic, Cranbury, N.J.) were injected with 5×10^6 HT29-Luc2, HCT116-luc2, or SW620 cells in the subcutaneous space of the right flank as previously described (18,33). Mice were randomized into different groups (five mice per group). […] The single-dose group received a tail vein injection of 20 mg/kg Zt/g4-DM1 in 0.1 ml PBS followed by observation for 28 days. The multi-dose study was performed by treating mice with Zt/g4-DM1 at 1, 3, 7, 10, and 15 mg/kg every four days for a total of five injections. Bioluminescence from individual tumors was measured every four days using Caliper IVIS image system (PerkinElmer). Tumor volumes from SW620-derived tumors were measured according to a formula: V=pi/6×1.58×(length×width)^3/2 (18,33). Animals were euthanized when tumor volumes exceeded 2000 mm^3 or if tumors became necrotic or ulcerated through the skin.
The inventors first determined the efficacy of a single dose of Zt/g4-DM1 at 20 mg/kg body weight on tumors derived from HCT116, HT29, and SW620 cells. Tumor growth by HCT116-luc2 and HT29-luc2 cells was measured by bioluminescence emitted from tumor cells. SW620-mediated tumors were evaluated by tumor volume (18,34). […]

cell surface RON = cell surface RON (Homo sapiens, UniProt Q04912); assay: Kinetic reduction of cell surface RON (endocytosis) in CRC cells; type: cell-based; parameters: We selected CRC cell lines HT29, HCT116, and SW620 expressing variable levels of RON as the cellular model; host or cells: HCT116, HT29, SW620; details: for time required to induce 50% RON reduction (internalization efficacy): 37° C.
Method: FIGS. 2A to 2F show the binding and induction of RON endocytosis by Zt/g4-DM1 in CRC cells. FIG. 2A: Levels of RON expression by different CRC cell lines: Five CRC cells lines (1×10^6 cells/ml) in PBS were incubated at 4° C. with 5 μg/ml Zt/g4 for 60 min. […] matched mouse IgG was used as the control. Cell surface RON was quantitatively determined by the immunofluorescence assay using QIFKIT® reagents from DAKO (Carpentaria, Calif.) as detailed in Materials and Methods. FIG. 2B: Binding of Zt/g4-DM1 to human CRC cell lines: HCT116, HT29, and SW620 cells (1×10^5 cells) were incubated with 5 μg Zt/g4-DM1 or Zt/c1-DM1. Free Zt/g4 and Zt/c1 was used as the control. Fluorescence intensity from individual samples was determined by flow cytometric analysis. FIG. 2C: Kinetic reduction of cell surface RON: HCT116, HT29, and SW620 cells (1×10^6 cells per dish) were treated at 37° C. with 5 μg/ml of Zt/g4-DM1, collected at different time points, washed with acidic buffer to eliminate cell surface bound IgG, and then incubated with 1 μg/mL of anti-RON mAb 2F2 Immunofluorescence was analyzed by flow cytometer using FITC-coupled anti-mouse IgG Immunofluorescence from cells treated with Zt/g4-DM1 or Zt/c1-DM1 at 4° C. was set as 100%. Internalization efficiency was calculated as the time required to achieve 50% cell surface RON reduction. FIG. 2D: RON reduction analysis by Western blotting: Cellular proteins (50 μg per lane) from cells treated with 5 μg/ml of Zt/g4 or Zt/g4-DM1 for various times were separated in an 8% SDS-PAGE under reduced conditions and transferred to the membrane. RON was detected by rabbit anti-RON antibody followed enhanced chemiluminescent reagents. The same membrane was reprobed for actin as the loading control. FIG. 2E: Quantitative measurement of RON expression: The intensity of individual RON-β chains was determined by densitometric analysis. Internalization efficiency was calculated as the time required to achieve a 50% RON reduction. FIG. 2F: Immunofluorescent localization of cytoplasmic RON: HT29 cells (1×10^5 cells per chamber) were treated at 4° C. or 37° C. with 5 μg/ml of Zt/g4-DM1 or Zt/c1-DM1 for 6 h followed by FITC-coupled anti-mouse IgG. After cell fixation, immunofluorescence was detected using the BK70 Olympus microscope equipped with a fluorescence apparatus. LAMP1 was used as a marker for protein cytoplasmic localization. DAPI was used to stain nuclear DNA;
Zt/g4-DM1-induced RON endocytosis was studied, which is a process essential for delivering DM1 into CRC cells. Zt/g4-DM1 causes a progressive reduction of cell surface RON in a time-dependent manner in all three CRC cell lines tested (FIG. 2C). Less than 20% of RON remained on the cell surface after a 48 hour treatment. […] Thus, Zt/g4-DM1 is more efficient and potent in induction of RON endocytosis.

cell surface RON, sequence (Q04912 310-1400 limits assumed): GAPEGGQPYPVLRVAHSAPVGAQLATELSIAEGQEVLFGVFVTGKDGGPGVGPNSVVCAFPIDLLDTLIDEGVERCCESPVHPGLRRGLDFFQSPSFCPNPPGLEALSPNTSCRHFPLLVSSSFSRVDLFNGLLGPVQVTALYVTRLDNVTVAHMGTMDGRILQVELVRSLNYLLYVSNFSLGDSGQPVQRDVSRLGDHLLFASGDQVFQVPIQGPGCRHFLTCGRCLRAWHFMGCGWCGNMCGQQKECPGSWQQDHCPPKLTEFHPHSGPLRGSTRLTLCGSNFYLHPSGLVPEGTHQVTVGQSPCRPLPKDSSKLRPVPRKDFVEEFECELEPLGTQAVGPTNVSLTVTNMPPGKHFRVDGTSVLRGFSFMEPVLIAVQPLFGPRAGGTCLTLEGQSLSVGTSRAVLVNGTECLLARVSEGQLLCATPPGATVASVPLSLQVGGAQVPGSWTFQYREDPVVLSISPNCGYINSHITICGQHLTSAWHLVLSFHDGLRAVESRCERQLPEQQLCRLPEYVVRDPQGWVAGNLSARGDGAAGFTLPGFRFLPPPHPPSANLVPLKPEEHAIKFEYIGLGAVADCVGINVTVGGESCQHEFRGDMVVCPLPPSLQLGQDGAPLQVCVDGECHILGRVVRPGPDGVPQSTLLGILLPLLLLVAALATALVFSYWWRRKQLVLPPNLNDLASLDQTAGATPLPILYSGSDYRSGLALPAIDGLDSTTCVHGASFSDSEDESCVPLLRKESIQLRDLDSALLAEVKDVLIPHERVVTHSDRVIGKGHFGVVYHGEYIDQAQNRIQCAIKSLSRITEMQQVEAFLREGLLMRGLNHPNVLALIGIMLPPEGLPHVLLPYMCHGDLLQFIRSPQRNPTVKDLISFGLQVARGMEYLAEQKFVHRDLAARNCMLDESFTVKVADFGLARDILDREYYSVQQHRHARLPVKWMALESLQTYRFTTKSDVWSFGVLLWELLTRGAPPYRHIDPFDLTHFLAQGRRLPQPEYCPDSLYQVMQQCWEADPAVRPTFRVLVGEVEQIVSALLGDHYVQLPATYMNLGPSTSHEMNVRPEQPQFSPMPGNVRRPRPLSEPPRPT
cell surface RON, sequence (Q04912 25-304 limits assumed): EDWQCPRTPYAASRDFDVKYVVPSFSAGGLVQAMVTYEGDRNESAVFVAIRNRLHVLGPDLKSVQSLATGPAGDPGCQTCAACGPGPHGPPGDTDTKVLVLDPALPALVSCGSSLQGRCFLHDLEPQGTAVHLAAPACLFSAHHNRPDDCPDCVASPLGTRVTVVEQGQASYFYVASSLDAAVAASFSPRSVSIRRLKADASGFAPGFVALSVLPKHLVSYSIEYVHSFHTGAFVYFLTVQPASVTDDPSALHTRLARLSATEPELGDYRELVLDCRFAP
T1 sequence (Q04912 310-1400 limits assumed): as the sequence (Q04912 310-1400 limits assumed) above
T1 sequence (Q04912 25-304 limits assumed): as the sequence (Q04912 25-304 limits assumed) above
RON, sequence (Q04912 310-1400 limits assumed): as the sequence (Q04912 310-1400 limits assumed) above
RON, sequence (Q04912 25-304 limits assumed): as the sequence (Q04912 25-304 limits assumed) above

B1: Zt/g4-DM1: anti-RON mouse mAb Zt/g4 conjugated to maytansinoid DM1 via non-reducible thioether linkage (SMCC), DAR about 4:1 (conjugate)
VH: EVQLQQSGAELVKPGASVKLSCTTSGFNIIDTYIHWVNQKPDQGLEWIGRIDPADGNRKSDPKFQVKATITVDTSSNTAYLQLSSLTSGDTAVYYCARGYGNLNAMDSWGQGTSVTVSS
VL: DIQMNQSPSSLSASLGDTITITCHASQNINVWLNWYQQKPGNIPKLLIYKASNLHTGVPSRFSGSGSGTGFTLTISSLQPEDIATYYCQQGQSYPLTFGGGTKLEIK
Question: What does the source list for B1?
Answer: RON-β chain detected (RON-β chain (mature RON)): Less than 20%; RON endocytosis by immunofluorescence (RON): intracellular localization of internalized RON occurred at 37 °C; time at which cell cycle profile changes were observed [1]: ≤ 3 h; effect on cell cycle ([1]; three CRC cell lines): dramatic increase in G2/M phase; IC50 cell death [2]: 5 to 7 µg/mL; cell death ([2]; 72 h): More than 50%; duration of tumor growth delay [3]: up to 20 days; duration of efficacy without signs of tumor regrowth ([3]; day 4 to day 16): up to 12 days; time required to induce 50% RON reduction (internalization efficacy) (cell surface RON; HCT116, 5 μg/ml): 12.26 h; time required to induce 50% RON reduction (internalization efficacy) (cell surface RON; HT29, 5 μg/ml): 11.02 h; time required to induce 50% RON reduction (internalization efficacy) (cell surface RON; SW620, 5 μg/ml): 12.30 h; RON remaining on the cell surface (cell surface RON; after 48 hour treatment, 5 μg/ml, three CRC cell lines): Less than 20%; cell surface RON internalized (cell surface RON; within 48 h): > 80%
